The values below come from patent US20220281976A1 (Alector, published 2022).

By Kd is commonly meant the constant that tells how readily two partners part at equilibrium.

T1: mouse CD33 Fc fusion protein (mouse, UniProt Q63994 18-240, limits assumed)
T1 construct: also called mCD33-Fc
T1 sequence: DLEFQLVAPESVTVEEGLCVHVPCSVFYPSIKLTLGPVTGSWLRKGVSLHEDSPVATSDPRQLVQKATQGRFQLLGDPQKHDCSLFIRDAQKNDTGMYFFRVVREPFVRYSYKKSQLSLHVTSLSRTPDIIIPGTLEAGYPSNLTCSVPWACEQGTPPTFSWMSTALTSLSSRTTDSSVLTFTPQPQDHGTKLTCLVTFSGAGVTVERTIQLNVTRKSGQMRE

B1: C-36 (antibody, V domains shown)
VH: EVQLVESGGGLVQPGGSLRLSCAASGFTFSSYWMSWVRQAPGKGLEWVANIKQDGSEKYYVDSVKGRFTISRDNAKNSLYLQMNSLRAEDTAVYYCARDGQYYPAYGMDVWGQGTTVTVSS
VL: EIVMTQSPATLSVSPGERATLSCRASQSVSSNLAWYQQKPGQAPRLLIYGASTRATGIPARFSGSGSGTEFTLTISSLQSEDFAVYYCQQYFDLPTFGGGTKVEIK
notes: human IgG1
B2: C-42 (antibody, V domains shown)
VH: QLQLQESGPGLVKPSETLSLTCTVSGGSISSSSYYWGWIRQPPGKGLEWIGSIYYSGSTYYNPSLKSRVTISVDTSKNQFSLKLSSVTAADTAVYYCAREPIYRRGMDVWGQGTTVTVSS
VL: EIVLTQSPATLSLSPGERATLSCRASQSVSSYLAWYQQKPGQAPRLLIYDASNRATGIPARFSGSGSGTDFTLTISSLEPEDFAVYYCQQFSNYPTFGGGTKVEIK
notes: human IgG1
B3: C-66 (antibody, V domains shown)
VH: B2 VH with P101V, I102G, R104P, R105Y
VL: DIQLTQSPSSLSASVGDRVTITCQASQDISNFLNWYQQKPGKAPKLLIYDASNLETGVPSRFSGSGSGTDFTFTISSLQPEDIATYYCQQYSDLPTFGGGTKVEIK
notes: human IgG1
B4: C-73 (antibody, V domains shown)
VH: QVQLVESGGGVVQPGRSLRLSCAASGFTFSSYGMHWVRQAPGKGLEWVAVIWYDGSNKYYADSVKGRFTISRDNSKNTLYLQMNSLRAEDTAVYYCARGTNAYGTPRDFDLWGRGTLVTVSS
VL: DIQMTQSPSSLSASVGDRVTITCRASQSISSYLNWYQQKPGKAPKLLIYAASSLQSGVPSRFSGSGSGTDFTLTISSLQPEDFATYYCQQLSDTPITFGGGTKVEIK
notes: human IgG1
B5: C-18 (antibody, V domains shown)
VH: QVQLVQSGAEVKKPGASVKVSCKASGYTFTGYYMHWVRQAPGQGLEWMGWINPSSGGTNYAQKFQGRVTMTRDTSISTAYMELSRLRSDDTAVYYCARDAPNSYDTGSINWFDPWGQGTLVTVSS
VL: B4 VL with L11V, S28G, Y32W, N34A, L91A, S92N, D93Y, T94H, I96L
notes: human IgG1
B6: C-83 (antibody, V domains shown)
VH: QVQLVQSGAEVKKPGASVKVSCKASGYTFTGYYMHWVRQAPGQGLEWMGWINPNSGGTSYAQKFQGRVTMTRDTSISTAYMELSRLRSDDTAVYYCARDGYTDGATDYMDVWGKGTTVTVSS
VL: B4 VL with M4L, L11V, S28G, Y32W, N34A, L91A, S92Y, D93A, T94L, I96P
notes: human IgG1
B7: C-19 (antibody, V domains shown)
VH: QLQLQESGPGLVKPSETLSLTCTVSGGSISSSSYAWGWIRQPPGKGLEWIGSIYYSGSTYYNPSLKSRVTISVDTSKNQFSLKLSSVTAADTAVYYCARVGYTRPYGMDVWGQGTTVTVSS
VL: DIQMTQSPSSVSASVGDRVTITCRASQGISSWLAWYQQKPGKAPKLLIYAASSLQSGVPSRFSGSGSGTDFTLTISSLQPEDFATYYCQQINAHPTFGGGTKVEIK
notes: human IgG1
B8: C-35 (antibody, V domains shown)
VH: B7 VH with S52N, V100A, T103R, R104S, Y106S, M108F, V110Y, T116L
VL: B7 VL with S53N, I91G
notes: human IgG1
B9: C-70 (antibody, V domains shown)
VH: QVQLVESGGGVVQPGRSLRLSCAASGFTFSTYGMHWVRQAPGKGLEWVAVIWYDGSNKYYADSVKGRFTISRDNSKNTLYLQMNSLRAEDTAVYYCARGQHGTSRVDFDYWGQGTLVTVSS
VL: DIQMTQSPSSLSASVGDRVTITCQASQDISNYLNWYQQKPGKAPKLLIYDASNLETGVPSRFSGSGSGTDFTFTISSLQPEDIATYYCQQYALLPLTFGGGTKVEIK
notes: human IgG1
B10: C-13 (antibody, V domains shown)
VH: EVQLVESGGGLVQPGGSLRLSCAASGFTFSSYWMSWVRQAPGKGLEWVANIKSDGSEKYYVDSVKGRFTISRDNAKNSLYLQMNSLRAEDTAVYYCARGPSYLASGAFDLWGRGTLVTVSS
VL: EIVLTQSPATLSLSPGERATLSCRASQSVSSYLAWYQQKPGQAPRLLIYDASNRATGIPARFSGSGSGTDFTLTISSLEPEDFAVYYCQQAYVVPPRTFGGGTKVEIK
notes: human IgG1

Numbering of substitutions follows the chain as printed.

T3 sequence (P20138 18-364): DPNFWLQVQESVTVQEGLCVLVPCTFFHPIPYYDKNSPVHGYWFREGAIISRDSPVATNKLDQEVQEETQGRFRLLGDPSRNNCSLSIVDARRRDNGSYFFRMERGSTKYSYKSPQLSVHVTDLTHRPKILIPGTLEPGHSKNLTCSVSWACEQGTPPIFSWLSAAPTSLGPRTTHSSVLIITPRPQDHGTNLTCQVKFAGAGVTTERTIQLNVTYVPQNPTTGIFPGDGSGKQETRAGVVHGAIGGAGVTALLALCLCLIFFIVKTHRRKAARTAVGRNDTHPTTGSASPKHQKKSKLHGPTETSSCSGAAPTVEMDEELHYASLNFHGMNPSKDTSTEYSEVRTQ
T4 sequence (P20138 18-259 limits assumed): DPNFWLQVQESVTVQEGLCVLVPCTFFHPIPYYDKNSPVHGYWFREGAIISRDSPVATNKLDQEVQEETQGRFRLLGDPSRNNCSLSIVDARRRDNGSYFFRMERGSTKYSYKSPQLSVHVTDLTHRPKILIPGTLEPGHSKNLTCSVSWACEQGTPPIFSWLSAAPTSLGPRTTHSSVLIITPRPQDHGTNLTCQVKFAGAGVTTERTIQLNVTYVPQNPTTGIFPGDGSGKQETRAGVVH

In one test the target is T2, human CD33 Fc fusion protein (human, UniProt P20138 18-259).
T2 construct: also called hCD33-Fc; human CD33/Fc chimera (R&D Systems)
T2 sequence (P20138 18-259 limits assumed): as above
Kind of test: RBC adhesion to plate-bound CD33-Fc; antibody 0.5 ug/ml.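 Note: Plate-coated CD33-Fc preincubated 1 h with antibody, then red blood cells added for 1 h at room temperature, adherent cells lysed and quantified via peroxidase activity.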
Turning to B1, the “Percent RBC Binding to CD33” value was found to be 13.4%.
In the case of B2, the “Percent RBC Binding to CD33” value is 21.2%.
Turning to B3, the “Percent RBC Binding to CD33” value is 44%.
With B4, the “Percent RBC Binding to CD33” value is 29.8%.
Regarding B5, the “Percent RBC Binding to CD33” value is 111%.
Same read-out and setting: to B6 belongs 98.7%; to B7, 19.5%.
In the case of B8, the “Percent RBC Binding to CD33” value was 16.6%.
Consider B9, for which the “Percent RBC Binding to CD33” value was determined as 23%.
In the case of B10, the “Percent RBC Binding to CD33” value stood at 41.3%.

The next test has as its target T3, human CD33 (human, UniProt P20138 18-364). The test can be described thus: cell-based or functional assay.
For the molecule B1, the “Percent CD33 Surface Expression, DC % CD33” value amounted to 21.2%; the “Percent CD33 Surface Expression, Macrophage % CD33” value was 36.3%; the “Percent CD33 Surface Expression, Monocyte % CD33” value worked out at 46.6%.
Turning to B2, the “Percent CD33 Surface Expression, DC % CD33” value stood at 27.8%; the “Percent CD33 Surface Expression, Macrophage % CD33” value amounted to 52.2%; the “Percent CD33 Surface Expression, Monocyte % CD33” value came to 44.9%.
Regarding B3, the “Percent CD33 Surface Expression, DC % CD33” value is 77.4% and the “Percent CD33 Surface Expression, Monocyte % CD33” value was found to be 59.9%.
On to B4, for which the “Percent CD33 Surface Expression, DC % CD33” value stood at 22.9%; the “Percent CD33 Surface Expression, Macrophage % CD33” value stood at 55.9%; the “Percent CD33 Surface Expression, Monocyte % CD33” value came out at 24.9%.
On to B5, for which the “Percent CD33 Surface Expression, DC % CD33” value was 80% and the “Percent CD33 Surface Expression, Monocyte % CD33” value was found to be 84.8%.
B6: the “Percent CD33 Surface Expression, DC % CD33” value amounted to 79.6% and the “Percent CD33 Surface Expression, Monocyte % CD33” value turned out to be 87.8%.
Take B7: the “Percent CD33 Surface Expression, DC % CD33” value is 11.6%; the “Percent CD33 Surface Expression, Macrophage % CD33” value was found to be 58.7%; the “Percent CD33 Surface Expression, Monocyte % CD33” value is 28.2%.
Regarding B8, the “Percent CD33 Surface Expression, DC % CD33” value is 18.7%; the “Percent CD33 Surface Expression, Macrophage % CD33” value came to 51.2%; the “Percent CD33 Surface Expression, Monocyte % CD33” value was determined as 31.9%.
For B9, the “Percent CD33 Surface Expression, DC % CD33” value turned out to be 47.5%; the “Percent CD33 Surface Expression, Macrophage % CD33” value came to 68.8%; the “Percent CD33 Surface Expression, Monocyte % CD33” value came out at 53.9%.
With B10, the “Percent CD33 Surface Expression, DC % CD33” value came to 21.8%; the “Percent CD33 Surface Expression, Macrophage % CD33” value is 63.1%; the “Percent CD33 Surface Expression, Monocyte % CD33” value was found to be 48%.

Another test concerns the target T1, mouse CD33 Fc fusion protein. The test can be described thus: ForteBio BLI or MSD-SET. A general note: In BLI a coated tip is dipped into the sample, and binding shifts an interference pattern.
Consider B1, for which the binding result was “no binding (tested: 100 nM)”.
Take B2: the binding result is “no binding (tested: 100 nM)”.
On the same count and under the same terms, to B3 belongs “no binding (tested: 100 nM)”.
With B4, the binding result was “no binding (tested: 100 nM)”.
Consider B5, for which the binding result is given as “no binding (tested: 100 nM)”.
In the case of B6, the binding result is “no binding (tested: 100 nM)”.
As to B7, the binding result is listed as “no binding (tested: 100 nM)”.
As to B8, the binding result was “no binding (tested: 100 nM)”.
Regarding B9, the binding result is “no binding (tested: 100 nM)”.
Consider B10, for which the binding result is recorded as “no binding (tested: 100 nM)”.

The target in a further test is T3, human CD33. Kind of test: flow cytometry, human primary T cells.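 Note: binding of anti-CD33 antibodies at 10 ug/ml to human primary T cells, 1 h on ice, detected with PE-labelled secondary antibody, read as flow cytometry MFI.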 A general note: A flow cytometer gives signals particle by particle.
For the molecule B1, the “T cell MFI” value came to 228.
In the case of B2, the “T cell MFI” value turned out to be 269.
For the molecule B3, the “T cell MFI” value amounted to 772.
For B4, the “T cell MFI” value came out at 210.
For B5, the “T cell MFI” value stood at 43.4.
Take B6: the “T cell MFI” value came to 80.6.
In the case of B7, the “T cell MFI” value was 470.
With B8, the “T cell MFI” value was found to be 186.
Regarding B9, the “T cell MFI” value was found to be 192.
As to B10, the “T cell MFI” value is 205.

Another test has as its target T3, human CD33. The test can be described thus: flow cytometry, human primary dendritic cells.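 Note: binding of anti-CD33 antibodies (10 ug/ml, 1 h on ice) to human primary dendritic cells, detected with a PE-labelled secondary antibody, reported as flow cytometry MFI.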
For the molecule B1, the “DC MFI” value amounted to 1160.
Take B2: the “DC MFI” value is 1130.
Same read-out and setting: to B3 belongs 892; to B4, 1050; to B5, 1190.
As to B6, the “DC MFI” value stood at 70.
On the same count and under the same terms, to B7 belongs 1700; to B8, 1320; to B9, 938.
Consider B10, for which the “DC MFI” value worked out at 1740.

Another test has as its target T4, human monomeric His tagged CD33 protein (human, UniProt P20138 18-259).
T4 construct: also called hCD33-His
Kind of test: ForteBio BLI or MSD-SET, IgG, monomeric antigen.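 Note: BLI: antibodies captured on AHQ sensors, 100 nM antigen association 5 min, dissociation 5 min, 1:1 fit. MSD-SET: antigen fixed at 50 pM, antibody titrated, quadratic fit.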
Experimental: The binding affinity of each anti-CD33 antibody was determined by measuring their KD by ForteBio or MSD-SET. […] Briefly, ForteBio affinity measurements were performed by loading IgGs on-line onto AHQ sensors. Sensors were equilibrated off-line in assay buffer for 30 min and then monitored on-line for 60 seconds for baseline establishment. Sensors with loaded IgGs were exposed to 100 nM antigen for 5 minutes, then transferred to assay buffer for 5 min for off-rate measurement. Kinetics were analyzed using the 1:1 binding model.
Solution equilibrium titrations (SET) were performed in PBS+0.1% IgG-Free BSA (PBSF) with antigen held constant at 50 pM and incubated with 3-to 5-fold serial dilutions of antibody starting at 10 nM. Antibodies (20 nM in PBS) were coated onto standard bind MSD-ECL plates overnight at 4° C. or at room temperature for 30 min. Plates were then blocked for 30 min with shaking at 700 rpm, followed by three washes with wash buffer (PBSF+0.05% Tween 20). SET samples were applied and incubated on the plates for 150s with shaking at 700 rpm followed by one wash. Antigen captured on a plate was detected with 250 ng/mL sulfotag-labeled streptavidin in PBSF by incubation on the plate for 3 min. The plates were washed three times with wash buffer and then read on the MSD Sector Imager 2400 instrument using 1× Read Buffer T with surfactant. The percent free antigen was plotted as a function of titrated antibody in Prism and fit to a quadratic equation to extract the KD. To improve throughput, liquid handling robots were used throughout MSD-SET experiments, including SET sample preparation.
Take B1: the Kd worked out at 2.35 nM.
For the molecule B2, the Kd came to 12.7 nM.
On the same count and under the same terms, to B3 belongs 100 nM.
B4 yielded a dissociation constant Kd of 23.7 nM.
In turn, B5 returned a Kd of 16.1 nM.
The same measure, in the same setting: to B6 belongs 59.3 nM; to B7, 1.82 nM.
With B8, the Kd is 4.26 nM.
Take B9: the affinity, expressed as Kd, was 32.2 nM.
The same measure, in the same setting: to B10 belongs 9.97 nM.

For the next test, the target named is T2, human CD33 Fc fusion protein. The test can be described thus: RBC adhesion to plate-bound CD33-Fc; antibody 1.0 ug/ml.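 Note: red blood cells adhering to plate-coated CD33-Fc after 1 h antibody pretreatment, then 1 h at room temperature, bound cells read as peroxidase activity after lysis.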
As to B1, the “Percent RBC Binding to CD33” value turned out to be 16.1%.
Still for that read-out and setting: to B2 belongs 6.65%.
The same measure, in the same setting: to B3 belongs 19.3%; to B4, 13.7%; to B5, 119%.
For B6, the “Percent RBC Binding to CD33” value turned out to be 108%.
Regarding B7, the “Percent RBC Binding to CD33” value was 14.3%.
On to B8, for which the “Percent RBC Binding to CD33” value amounted to 7.18%.
Turning to B9, the “Percent RBC Binding to CD33” value is 7.46%.
For B10, the “Percent RBC Binding to CD33” value came to 15.3%.

A further test concerns the target T3, human CD33. The test can be described thus: flow cytometry, human primary macrophages.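 Note: binding of CD33 antibodies at 10 µg/ml to human primary macrophages, 1 h on ice, detected with PE-labelled secondary antibody by flow cytometry, reported as MFI.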
For B1, the “Macrophage MFI” value was found to be 853.
As to B2, the “Macrophage MFI” value came out at 617.
B3: the “Macrophage MFI” value was 729.
Take B4: the “Macrophage MFI” value came out at 573.
For B5, the “Macrophage MFI” value was found to be 981.
As to B6, the “Macrophage MFI” value was 409.
In the case of B7, the “Macrophage MFI” value stood at 887.
B8: the “Macrophage MFI” value came to 920.
With B9, the “Macrophage MFI” value stood at 652.
With B10, the “Macrophage MFI” value is 838.

The target in a further test is T3, human CD33. Kind of test: flow cytometry, human primary monocytes.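 Note: binding of anti-CD33 antibodies at 10 ug/ml to human primary monocytes, 1 h on ice, detected by PE-labelled secondary antibody, flow cytometry readout as mean fluorescence intensity.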 Details: reference not given here.
As to B1, the “Monocyte MFI” value is 144.
As to B2, the “Monocyte MFI” value was determined as 74.
With B3, the “Monocyte MFI” value worked out at 107.
Take B4: the “Monocyte MFI” value stood at 94.
As to B5, the “Monocyte MFI” value is 189.
As to B6, the “Monocyte MFI” value was 646.
The same measure, in the same setting: to B7 belongs 182; to B8, 160.
For the molecule B9, the “Monocyte MFI” value was found to be 84.
B10: the “Monocyte MFI” value was 181.
